# What was measured:
# [1] = biological target: PBD of human Plk2 (residues 373 to 685) (human) (UniProt Q9NYY3); experiment: ITC
# [2] = biological target: Plk1 PBD (residues 326-603), purified recombinant (UniProt P53350); experiment: ITC (Table 1, not given)
# [3] = biological target: Plk1 (endogenous, in mitotic HeLa cell lysates) (UniProt P53350); experiment: pull-down from mitotic HeLa lysate with bead-immobilised peptide (FIG. 1A)
# [4] = biological target: Plk1 PBD (residues 326-603), purified recombinant (UniProt P53350); experiment: ITC, 25 C
# [5] = biological target: Flag-Plk1(K82M) (UniProt P53350); experiment: pull-down from mixed HeLa lysates, anti-Flag blot (FIG. 3D)
# Flag-Plk1(K82M), sequence (P53350 whole entry K82M, the tested form may be a part): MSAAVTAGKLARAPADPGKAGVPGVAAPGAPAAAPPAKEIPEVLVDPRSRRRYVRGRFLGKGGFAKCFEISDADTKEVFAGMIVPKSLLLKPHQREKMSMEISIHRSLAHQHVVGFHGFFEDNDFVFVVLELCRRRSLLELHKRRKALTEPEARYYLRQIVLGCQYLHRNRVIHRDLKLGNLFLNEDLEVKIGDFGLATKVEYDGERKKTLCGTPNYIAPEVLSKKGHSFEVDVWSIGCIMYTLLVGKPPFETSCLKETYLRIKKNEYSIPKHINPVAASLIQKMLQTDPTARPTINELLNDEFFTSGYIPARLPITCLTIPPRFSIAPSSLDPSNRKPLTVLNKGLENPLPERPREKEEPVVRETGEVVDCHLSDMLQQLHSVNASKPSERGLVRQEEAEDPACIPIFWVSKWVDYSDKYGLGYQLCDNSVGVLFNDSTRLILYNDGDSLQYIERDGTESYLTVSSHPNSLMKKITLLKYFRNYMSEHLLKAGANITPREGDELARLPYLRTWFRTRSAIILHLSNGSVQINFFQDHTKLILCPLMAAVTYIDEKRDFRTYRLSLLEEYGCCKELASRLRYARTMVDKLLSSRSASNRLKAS
# [6] = biological target: PBD of human Plk2 (residues 373 to 685) (human) (UniProt Q9NYY3); experiment: ITC; no saturable binding
# PBD of human Plk2 (residues 373 to 685) (human), sequence (Q9NYY3 373-685 limits assumed): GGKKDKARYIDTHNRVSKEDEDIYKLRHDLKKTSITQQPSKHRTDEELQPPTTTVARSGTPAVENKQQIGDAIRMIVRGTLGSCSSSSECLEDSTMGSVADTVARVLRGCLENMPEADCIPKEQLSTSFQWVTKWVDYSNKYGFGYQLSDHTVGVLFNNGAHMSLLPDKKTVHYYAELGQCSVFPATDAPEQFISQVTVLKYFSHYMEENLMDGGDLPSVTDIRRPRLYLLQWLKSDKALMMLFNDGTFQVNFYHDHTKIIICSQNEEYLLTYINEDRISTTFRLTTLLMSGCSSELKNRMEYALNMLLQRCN
# Plk1 PBD (residues 326-603), purified recombinant, sequence (P53350 326-603 limits assumed): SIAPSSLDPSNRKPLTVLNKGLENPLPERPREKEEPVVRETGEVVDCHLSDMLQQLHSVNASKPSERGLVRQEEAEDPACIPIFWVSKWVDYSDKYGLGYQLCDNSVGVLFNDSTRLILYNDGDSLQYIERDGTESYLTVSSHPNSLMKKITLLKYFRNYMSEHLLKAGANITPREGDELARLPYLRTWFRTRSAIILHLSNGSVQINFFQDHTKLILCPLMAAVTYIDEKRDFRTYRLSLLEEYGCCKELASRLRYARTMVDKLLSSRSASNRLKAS
# Plk1 (endogenous, in mitotic HeLa cell lysates), sequence (P53350 2-603 limits assumed): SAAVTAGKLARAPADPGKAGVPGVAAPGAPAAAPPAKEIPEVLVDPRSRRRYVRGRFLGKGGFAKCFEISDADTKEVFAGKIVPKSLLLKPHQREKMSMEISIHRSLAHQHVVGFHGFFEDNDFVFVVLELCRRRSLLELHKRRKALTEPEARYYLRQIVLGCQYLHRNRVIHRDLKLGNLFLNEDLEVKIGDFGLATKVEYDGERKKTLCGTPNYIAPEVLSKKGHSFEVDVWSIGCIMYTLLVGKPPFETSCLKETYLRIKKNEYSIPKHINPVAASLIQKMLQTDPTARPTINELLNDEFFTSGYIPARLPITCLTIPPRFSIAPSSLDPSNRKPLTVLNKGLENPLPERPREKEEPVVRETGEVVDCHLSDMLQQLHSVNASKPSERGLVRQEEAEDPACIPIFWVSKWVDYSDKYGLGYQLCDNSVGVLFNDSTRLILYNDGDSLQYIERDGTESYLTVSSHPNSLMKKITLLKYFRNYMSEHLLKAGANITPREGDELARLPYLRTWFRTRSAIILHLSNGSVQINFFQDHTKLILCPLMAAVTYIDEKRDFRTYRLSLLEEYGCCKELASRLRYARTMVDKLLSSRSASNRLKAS
substance,measurement,setting,value
PLQSpT (peptide),initial heats of interaction,[1],1.1 kcal/mol
LHSpT (peptide),fold weaker binding than PLHSpT,[2],50 fold
same,fold decrease in binding against PLHSpT,[3],7 fold
LHSpTA (peptide),Kd,[4],450 nM
PLHSpT with Leu-3 mutated to Ala (peptide),fold decrease in binding against PLHSpT,[5],3 fold
MQSpTPL (peptide),initial heats of interaction,[6],-1.68 kcal/mol
PPHSpT (peptide),fold decrease in binding against PLHSpT,[5],20 fold

# From US20120065146A1
